Consider 112 variants from the RNAGym collection of RNA variant scans (doi:10.7554/elife.90254).

To fix the notation:
B1: LINE1-mini (parent)
chain: GGCAGAGCUCAACACAGCGUGGCAAAGUGGCUGUGGCUAGACUGCC

The variants in the series derive from B1. Description: self-cleavage, relative activity (ratio to wild type); higher = more cleavage; in vitro, sequencing; the parent is a self-cleaving ribozyme.
Regarding GGCAGAGCUCAACACAGCGUGGCAAAGUGGCUGUAGCUAGACUGCC, the self-cleavage worked out at 0.16.
Consider GGCAGAGCUCAACACAGCGUGGCAAAGUGGCUGUCGCUAGACUGCC, for which the self-cleavage was 0.11.
The value for GGCAGAGCUCAACACAGCGUGGCAAAGUGGCUGUCGCUAGAAUGCC was 0.1.
As to GGCAGAGCUCAACACAGCGUGGCAAAGUGGCUGUCGCUAGAUUGCC, the self-cleavage is 0.05.
The value for GGCAGAGCUCAACACAGCGUGGCAAAGUGGCUGUCGCUAGAGUGCC was 0.04; that for GGCAGAGCUCAACACAGCGUGGCAAAGUGGCUGUAGCUAGUCUGCC was 0.14.
The value for GGCAGAGCUCAACACAGCGUGGCAAAGUGGCUGUAGCUAGCCUGCC was 0.04; that for GGCAGAGCUCAACACAGCGUGGCAAAGUGGCUGUAGCUAGGCUGCC was 0.05; that for GGCAGAGCUCAACACAGCGUGGCAAAGUGGCUGUCGCUAGACCGCC was 0.12.
As to GGCAGAGCUCAACACAGCGUGGCAAAGUGGCUGUCGCUAGACAGCC, the self-cleavage amounted to 0.11.
For the variant GGCAGAGCUCAACACAGCGUGGCAAAGUGGCUGGGGCUAGAUUGCC, the self-cleavage was 0.1.
The value for GGCAGAGCUCAACACAGCGUGGCAAAGUGGCUGGGGCUAGAGUGCC was 0.05; that for GGCAGAGCUCAACACAGCGUGGCAAAGUGGCUGGGGCUAGAAUGCC was 0.07.
The value for GGCAGAGCUCAACACAGCGUGGCAAAGUGGCUGGGGCGAGACUGCC was 0.03; that for GGCAGAGCUCAACACAGCGUGGCAAAGUGGCUGGGGCCAGACUGCC was 0.16; that for GGCAGAGCUCAACACAGCGUGGCAAAGUGGCUGGGGCAAGACUGCC was 0.3.
The value for GGCAGAGCUCAACACAGCGUGGCAAAGUGGCUGUAGCGAGACUGCC was 0.02.
In the case of GGCAGAGCUCAACACAGCGUGGCAAAGUGGCUGUAGCCAGACUGCC, the self-cleavage worked out at 0.06.
The value for GGCAGAGCUCAACACAGCGUGGCAAAGUGGCUGUAGCAAGACUGCC was 0.1; that for GGCAGAGCUCAACACAGCGUGGCAAAGUGGCUGUCGCUCGACUGCC was 0.13.
The value for GGCAGAGCUCAACACAGCGUGGCAAAGUGGCUGUCGCUUGACUGCC was 0.06; that for GGCAGAGCUCAACACAGCGUGGCAAAGUGGCUGUCGCUGGACUGCC was 0.09; that for GGCAGAGCUCAACACAGCGUGGCAAAGUGGCUGUAGCUAGACUGAC was 0.13.
The value for GGCAGAGCUCAACACAGCGUGGCAAAGUGGCUGUAGCUAGACUGUC was 0.13.
In the case of GGCAGAGCUCAACACAGCGUGGCAAAGUGGCUGUAGCUAGACUGGC, the self-cleavage worked out at 0.13.
For GGCAGAGCUCAACACAGCGUGGCAAAGUGGCUGCGGCGAGACUGCC, the self-cleavage came out at 0.06.
In the case of GGCAGAGCUCAACACAGCGUGGCAAAGUGGCUGCGGCCAGACUGCC, the self-cleavage is 0.07.
The value for GGCAGAGCUCAACACAGCGUGGCAAAGUGGCUGCGGCAAGACUGCC was 0.11; that for GGCAGAGCUCAACACAGCGUGGCAAAGUGGCUGUCGCUAGACUUCC was 0.06; that for GGCAGAGCUCAACACAGCGUGGCAAAGUGGCUGUCGCUAGACUACC was 0.09.
For GGCAGAGCUCAACACAGCGUGGCAAAGUGGCUGUCGCUAGACUCCC the value was 0.05; for GGCAGAGCUCAACACAGCGUGGCAAAGUGGCUGUAGCUAGACCGCC, 0.07.
Consider GGCAGAGCUCAACACAGCGUGGCAAAGUGGCUGUAGCUAGACGGCC, for which the self-cleavage worked out at 0.03.
For GGCAGAGCUCAACACAGCGUGGCAAAGUGGCUGUAGCUAGACAGCC the value was 0.09.
The value for GGCAGAGCUCAACACAGCGUGGCAAAGUGGCUGGGGCUUGACUGCC was 0.09; that for GGCAGAGCUCAACACAGCGUGGCAAAGUGGCUGGGGCUCGACUGCC was 0.05.
The value for GGCAGAGCUCAACACAGCGUGGCAAAGUGGCUGGGGCUGGACUGCC was 0.07; that for GGCAGAGCUCAACACAGCGUGGCAAAGUGGCUGUCGCUAGGCUGCC was 0.08; that for GGCAGAGCUCAACACAGCGUGGCAAAGUGGCUGUCGCUAGUCUGCC was 0.13.
Turning to GGCAGAGCUCAACACAGCGUGGCAAAGUGGCUGUCGCUAGCCUGCC, the self-cleavage turned out to be 0.06.
For GGCAGAGCUCAACACAGCGUGGCAAAGUGGCUGCGGCUAGACCGCC the value was 0.04; for GGCAGAGCUCAACACAGCGUGGCAAAGUGGCUGCGGCUAGACAGCC, 0.11.
For GGCAGAGCUCAACACAGCGUGGCAAAGUGGCUGCGGCUAGACGGCC the value was 0.31; for GGCAGAGCUCAACACAGCGUGGCAAAGUGGCUGGGGCUAGACUGAC, 0.06.
The value for GGCAGAGCUCAACACAGCGUGGCAAAGUGGCUGGGGCUAGACUGUC was 0.19; that for GGCAGAGCUCAACACAGCGUGGCAAAGUGGCUGGGGCUAGACUGGC was 0.13.
Regarding GGCAGAGCUCAACACAGCGUGGCAAAGUGGCUGGGGCUAUACUGCC, the self-cleavage was found to be 0.05.
For GGCAGAGCUCAACACAGCGUGGCAAAGUGGCUGGGGCUACACUGCC the value was 0.07.
The value for GGCAGAGCUCAACACAGCGUGGCAAAGUGGCUGGGGCUAAACUGCC was 0.03; that for GGCAGAGCUCAACACAGCGUGGCAAAGUGGCUGGGGCUAGCCUGCC was 0.04; that for GGCAGAGCUCAACACAGCGUGGCAAAGUGGCUGGGGCUAGGCUGCC was 0.05.
The value for GGCAGAGCUCAACACAGCGUGGCAAAGUGGCUGGGGCUAGUCUGCC was 0.17; that for GGCAGAGCUCAACACAGCGUGGCAAAGUGGCUGUAGCUAGACUGCU was 0.1.
As for GGCAGAGCUCAACACAGCGUGGCAAAGUGGCUGUAGCUAGACUGCG, the self-cleavage is 0.15.
For GGCAGAGCUCAACACAGCGUGGCAAAGUGGCUGUAGCUAGACUGCA the value was 0.11.
Take GGCAGAGCUCAACACAGCGUGGCAAAGUGGCUGGGCCUAGACUGCC: the self-cleavage is 0.05.
The value for GGCAGAGCUCAACACAGCGUGGCAAAGUGGCUGGGUCUAGACUGCC was 0.11; that for GGCAGAGCUCAACACAGCGUGGCAAAGUGGCUGGGACUAGACUGCC was 0.07.
For GGCAGAGCUCAACACAGCGUGGCAAAGUGGCUGUAGAUAGACUGCC the value was 0.14; for GGCAGAGCUCAACACAGCGUGGCAAAGUGGCUGUAGGUAGACUGCC, 0.02; for GGCAGAGCUCAACACAGCGUGGCAAAGUGGCUGUAGUUAGACUGCC, 0.06.
The value for GGCAGAGCUCAACACAGCGUGGCAAAGUGGCUGUCGCUAGACUGGC was 0.03; that for GGCAGAGCUCAACACAGCGUGGCAAAGUGGCUGUCGCUAGACUGAC was 0.06; that for GGCAGAGCUCAACACAGCGUGGCAAAGUGGCUGUCGCUAGACUGUC was 0.08.
In the case of GGCAGAGCUCAACACAGCGUGGCAAAGUGGCUGUCGGUAGACUGCC, the self-cleavage worked out at 0.09.
Take GGCAGAGCUCAACACAGCGUGGCAAAGUGGCUGUCGAUAGACUGCC: the self-cleavage was 0.08.
The value for GGCAGAGCUCAACACAGCGUGGCAAAGUGGCUGUCGUUAGACUGCC was 0.03; that for GGCAGAGCUCAACACAGCGUGGCAAAGUGGCUGUCGCCAGACUGCC was 0.05.
The value for GGCAGAGCUCAACACAGCGUGGCAAAGUGGCUGUCGCAAGACUGCC was 0.16; that for GGCAGAGCUCAACACAGCGUGGCAAAGUGGCUGUCGCGAGACUGCC was 0.02; that for GGCAGAGCUCAACACAGCGUGGCAAAGUGGCUGGGGCUAGACUGCA was 0.18.
As to GGCAGAGCUCAACACAGCGUGGCAAAGUGGCUGGGGCUAGACUGCU, the self-cleavage is 0.19.
Turning to GGCAGAGCUCAACACAGCGUGGCAAAGUGGCUGGGGCUAGACUGCG, the self-cleavage worked out at 0.14.
As for GGCAGAGCUCAACACAGCGUGGCAAAGUGGCUGUACCUAGACUGCC, the self-cleavage came out at 0.17.
The value for GGCAGAGCUCAACACAGCGUGGCAAAGUGGCUGUAACUAGACUGCC was 0.17; that for GGCAGAGCUCAACACAGCGUGGCAAAGUGGCUGUAUCUAGACUGCC was 0.19.
For GGCAGAGCUCAACACAGCGUGGCAAAGUGGCUGUAGCUAGAGUGCC, the self-cleavage worked out at 0.04.
Regarding GGCAGAGCUCAACACAGCGUGGCAAAGUGGCUGUAGCUAGAUUGCC, the self-cleavage was found to be 0.09.
For GGCAGAGCUCAACACAGCGUGGCAAAGUGGCUGUAGCUAGAAUGCC the value was 0.06.
Turning to GGCAGAGCUCAACACAGCGUGGCAAAGUGGCUGGGGAUAGACUGCC, the self-cleavage was determined as 0.06.
Consider GGCAGAGCUCAACACAGCGUGGCAAAGUGGCUGGGGUUAGACUGCC, for which the self-cleavage is 0.1.
For GGCAGAGCUCAACACAGCGUGGCAAAGUGGCUGGGGGUAGACUGCC the value was 0.07; for GGCAGAGCUCAACACAGCGUGGCAAAGUGGCUGUAGCUAAACUGCC, 0.07.
For GGCAGAGCUCAACACAGCGUGGCAAAGUGGCUGUAGCUAUACUGCC the value was 0.05; for GGCAGAGCUCAACACAGCGUGGCAAAGUGGCUGUAGCUACACUGCC, 0.08; for GGCAGAGCUCAACACAGCGUGGCAAAGUGGCUGUCACUAGACUGCC, 0.05.
Consider GGCAGAGCUCAACACAGCGUGGCAAAGUGGCUGUCUCUAGACUGCC, for which the self-cleavage came out at 0.09.
For GGCAGAGCUCAACACAGCGUGGCAAAGUGGCUGUCCCUAGACUGCC the value was 0.03; for GGCAGAGCUCAACACAGCGUGGCAAAGUGGCUGGGGCUAGACCGCC, 0.07.
For GGCAGAGCUCAACACAGCGUGGCAAAGUGGCUGGGGCUAGACAGCC the value was 0.21.
The value for GGCAGAGCUCAACACAGCGUGGCAAAGUGGCUGUCGCUAUACUGCC was 0.09; that for GGCAGAGCUCAACACAGCGUGGCAAAGUGGCUGUCGCUACACUGCC was 0.08.
As for GGCAGAGCUCAACACAGCGUGGCAAAGUGGCUGUCGCUAAACUGCC, the self-cleavage was determined as 0.1.
For GGCAGAGCUCAACACAGCGUGGCAAAGUGGCUGUCGCUAGACUGCU the value was 0.06.
For GGCAGAGCUCAACACAGCGUGGCAAAGUGGCUGUCGCUAGACUGCA, the self-cleavage came to 0.1.
For GGCAGAGCUCAACACAGCGUGGCAAAGUGGCUGUCGCUAGACUGCG the value was 0.06.
GGCAGAGCUCAACACAGCGUGGCAAAGUGGCUGCGGCUAGACUCCC: the self-cleavage is 0.11.
For GGCAGAGCUCAACACAGCGUGGCAAAGUGGCUGCGGCUAGACUUCC the value was 0.09; for GGCAGAGCUCAACACAGCGUGGCAAAGUGGCUGCGGCUAGACUACC, 0.12.
For GGCAGAGCUCAACACAGCGUGGCAAAGUGGCUGGGGCUAGACUGCC the value was 0.24.
Regarding GGCAGAGCUCAACACAGCGUGGCAAAGUGGCUGGGGCUAGACUUCC, the self-cleavage stood at 0.07.
The value for GGCAGAGCUCAACACAGCGUGGCAAAGUGGCUGGGGCUAGACUACC was 0.04; that for GGCAGAGCUCAACACAGCGUGGCAAAGUGGCUGGGGCUAGACUCCC was 0.07.
The value for GGCAGAGCUCAACACAGCGUGGCAAAGUGGCUGGCGCUAGACUGCC was 0.12; that for GGCAGAGCUCAACACAGCGUGGCAAAGUGGCUGGUGCUAGACUGCC was 0.07; that for GGCAGAGCUCAACACAGCGUGGCAAAGUGGCUGGAGCUAGACUGCC was 0.06.
For GGCAGAGCUCAACACAGCGUGGCAAAGUGGCUGUAGCUAGACUCCC the value was 0.07; for GGCAGAGCUCAACACAGCGUGGCAAAGUGGCUGUAGCUAGACUUCC, 0.09; for GGCAGAGCUCAACACAGCGUGGCAAAGUGGCUGUAGCUAGACUACC, 0.1.
Take GGCAGAGCUCAACACAGCGUGGCAAAGUGGCUGUAGCUGGACUGCC: the self-cleavage is 0.07.
For GGCAGAGCUCAACACAGCGUGGCAAAGUGGCUGUAGCUUGACUGCC the value was 0.12; for GGCAGAGCUCAACACAGCGUGGCAAAGUGGCUGUAGCUCGACUGCC, 0.08.
